Legend:
[1] = target: T1, human PVRIG expressed on cells (human, UniProt Q6DKI7 41-326); experiment: flow cytometry, CHO-huPVRIG cells
T1 construct: whole, on cells; cDNA encoding human PVRIG in pCHO1.0 for CHO cells; also called CHO-huPVRIG cells
T1 sequence (looked up): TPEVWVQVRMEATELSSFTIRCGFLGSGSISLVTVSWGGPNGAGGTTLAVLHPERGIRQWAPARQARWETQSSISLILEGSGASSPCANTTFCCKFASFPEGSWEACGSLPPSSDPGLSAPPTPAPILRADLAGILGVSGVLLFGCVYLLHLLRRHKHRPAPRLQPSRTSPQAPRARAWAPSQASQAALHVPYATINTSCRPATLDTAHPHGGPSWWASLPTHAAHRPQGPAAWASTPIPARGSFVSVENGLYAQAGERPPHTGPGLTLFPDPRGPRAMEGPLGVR
Description: (§1) The overexpressing cells were expanded and adjusted to an appropriate cell density, and added to a 96-well flow cytometry plate. After centrifugation, the cells were added with a gradiently diluted sample to be tested, and incubated at 4° C. for 30 minutes. The cells were washed twice with PBS, and added with a fluorescent secondary antibody correspondingly diluted to an appropriate concentration, then incubated at 4° C. for 30 minutes, and washed twice with PBS. Cells were resuspended with PBS, and detected on a CytoFlex flow cytometer, and the corresponding MFI was calculated. Graphpad software was used for graphical analysis to obtain EC₅₀ values.

[2] = target: T2, mouse PVRIG overexpressed on CHO cells (mouse, UniProt A0A1B0GS01 1-234); experiment: flow cytometry, CHO-muPVRIG cells
T2 construct: also called CHO-muPVRIG cells
T2 sequence: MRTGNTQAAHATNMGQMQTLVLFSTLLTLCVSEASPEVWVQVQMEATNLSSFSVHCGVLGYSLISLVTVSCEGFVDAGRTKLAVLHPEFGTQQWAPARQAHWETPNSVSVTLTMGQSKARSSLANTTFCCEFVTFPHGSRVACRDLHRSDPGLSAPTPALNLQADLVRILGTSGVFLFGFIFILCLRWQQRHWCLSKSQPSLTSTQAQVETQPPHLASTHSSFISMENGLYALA
Description: as §1

[3] = target: T3, cynomolgus PVRIG overexpressed on CHO cells (cynomolgus, UniProt A0A2K5WVV8 1-322); experiment: flow cytometry, CHO-cynoPVRIG cells
T3 construct: whole, on cells; also called CHO-cynoPVRIG cells
T3 sequence: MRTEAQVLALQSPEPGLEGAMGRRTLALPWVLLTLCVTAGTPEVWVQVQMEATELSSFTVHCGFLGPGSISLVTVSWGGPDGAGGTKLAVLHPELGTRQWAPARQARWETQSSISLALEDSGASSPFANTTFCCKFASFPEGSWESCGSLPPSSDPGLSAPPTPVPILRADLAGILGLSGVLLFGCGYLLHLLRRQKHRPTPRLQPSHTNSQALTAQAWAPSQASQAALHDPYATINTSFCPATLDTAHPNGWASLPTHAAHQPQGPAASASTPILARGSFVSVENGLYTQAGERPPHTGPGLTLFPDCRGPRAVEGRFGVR
Description: as §1

human PVRIG-his protein = target: T4, human PVRIG-his protein (human, UniProt Q6DKI7 41-171, limits assumed); experiment: BLI (ForteBio), antibody on AHQ sensor, 100 nM antigen, monovalent, 1:1 model
T4 construct: not shown: his tag
T4 sequence: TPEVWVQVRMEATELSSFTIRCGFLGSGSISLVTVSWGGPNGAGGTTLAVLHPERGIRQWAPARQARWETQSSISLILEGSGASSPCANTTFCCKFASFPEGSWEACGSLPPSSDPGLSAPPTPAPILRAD
Description: (§2) The antibody-loaded sensor was incubated in 100 nM target antigen to the plateau phase, and then the sensor was transferred to an analysis buffer and incubated for at least 2 minutes for measuring dissociation rate. The kinetic analysis was performed using a 1:1 binding model.

[4] = target: T5, cynomolgus monkey PVRIG-Fc protein (cynomolgus monkey, UniProt Q6DKI7 41-171 (human entry), limits assumed); experiment: BLI (ForteBio), antibody on AHQ sensor, 100 nM Fc antigen, bivalent, 1:1 model
T5 construct: no signal peptide limits stated; Bivalent antigen; also called Cynomolgus PVRIG-hFc; not shown: human Fc (hFc)
T5 chain: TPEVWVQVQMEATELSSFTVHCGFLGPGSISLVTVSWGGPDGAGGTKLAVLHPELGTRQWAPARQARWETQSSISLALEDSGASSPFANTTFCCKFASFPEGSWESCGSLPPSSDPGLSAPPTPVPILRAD
Description: as §2, with “antibody-loaded sensor was continued to be loaded in a high concentration of irrelevant intact antibody for 10 min, saturating the Fc-binding site on the AHQ sensor. The saturated” for “antibody-loaded”

[5] = target: Biotin-labeled mouse PVRIG protein with Mouse IgG2a Fc tag (mouse); experiment: competition ELISA: biotin mouse PVRIG-mouse IgG2a Fc binding to coated mouse CD112-his
Description: The coating solution in the ELISA plate was discarded, and the ELISA plate was washed three times with 1×PBST and was blocked with 5% BSA/PBS at 200 μL/well for 2 hours at room temperature. […] The SA-HRP dilution was discarded, the ELISA plate was washed three times with 1×PBST, ELISA Chromogen Solution was added at 100 μL/well and incubated for 1-3 minutes at room temperature, ELISA stopping solution was added at 50 μL/well and the absorbance values were read at 450 nm.

[6] = target: T6, human PVRIG protein with mouse IgG2a Fc tag (human; mouse, UniProt Q6DKI7 41-171, limits assumed); experiment: flow cytometry, competition: human PVRIG-mouse IgG2a Fc (1 ug/mL) binding to CHO-huCD112 cells
T6 construct: Whole entry named; not shown: mouse IgG2a Fc tag
T6 sequence (looked up): T4 sequence
Description: Specifically, CHO cells overexpressing human CD112 (CHO-huCD112 cells) were generated by transfection of the pCHO1.0 vector (purchased from Invitrogen) with cDNA encoding human CD112 cloned into the multiple cloning site (MCS), followed by pressure screening. […] APC-conjugated goat anti-mouse IgG antibody diluted 100-fold with PBS was added at 100 μL/well, incubated at 4° C. for 30 minutes and washed twice with PBS. Cells were resuspended with PBS at 100 μL/well, and detected on a CytoFlex flow cytometer, and the corresponding MFI was calculated.

[7] = target: T7, biotin-labeled TIGIT protein (co-binding ELISA) (human, UniProt Q495A1 22-141, biotin-labeled (site not stated)); experiment: co-binding (sandwich) ELISA: coated human PVRIG protein, antibody titrated, detected with biotin-labeled TIGIT protein 1 ug/mL and SA-HRP, absorbance 450 nm
T7 construct: Whole entry named; also called human TIGIT protein
T7 sequence (looked up): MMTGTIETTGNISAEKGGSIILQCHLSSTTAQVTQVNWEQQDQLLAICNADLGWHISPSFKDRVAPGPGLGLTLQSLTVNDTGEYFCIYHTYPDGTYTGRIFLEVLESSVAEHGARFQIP

- EC50 [1]: 2.54 nM
- EC50 [2]: 3.35 nM
- EC50 [3]: 0.844 nM
- Kd (human PVRIG-his protein): 0.144 nM
- Kd [4]: 0.267 nM
- IC50 [5]: 0.261 nM
- IC50 [6]: 1.06 nM
- binding result [7]: no binding (tested: 100 nM)
B1: anti-PVRIG monoclonal antibody ADI-56127 (antibody, V domains shown)
VH: QVQLVQSGAEVKKPGSSVKVSCKASGGTESVDAISWVRQAPGQGLEWMGDIIPFFDTDYAQKFQGRVTITADESTSTAYMELSSLRSEDTAVYYCAREGGTSWTHFFDLWGRGTLVTVSS
VL: not shown
